# Results taken from US11230581B2, “Peptides and combination of peptides for use in immunotherapy against ovarian cancer and other cancers” (Immatics Biotechnologies GmbH, priority 2015, dated 2022).
# Biological target: HLA-A*02:01 (Homo sapiens, UniProt P04439, D140Y/D185E/D98H/E176V/E277Q/G131W/G231S/I119V/I121R/I166T/I218V/L300P/L318F/N151K/N90K/P208A/P217A/Q86G/Q94H/R138H/R169H/T345S)
# Test: MHC binding assay (UV-ligand exchange, β2m ELISA, peptide exchange yield)
# Settings: binding of HLA-class I restricted peptides to HLA-A*02:01, UV-ligand exchange
# Procedure, shortened: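 Peptide-MHC complexes formed by UV-ligand exchange, cleaving a UV-sensitive placeholder peptide in favour of the test peptide. Exchange yield measured by ELISA: monomers diluted 100-fold onto streptavidin-coated plates, 1 h 37 °C, detected with 2 ug/ml HRP anti-β2m and TMB, absorbance at 450 nm.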
row,Substance,"Peptide exchange (MHC class I binding score, peptide exchange yield)"
1,288 (NLINEINGV; listed as Homo sapiens) [compound 288],“+++” (≥50 = +++)
2,363 (KVLDVSDLESV; listed as Homo sapiens) [compound 363],“++” (≥20% = ++)
3,461 (VMFRTPLASV; listed as Homo sapiens) [compound 461],“++” (≥20% = ++)
4,167 (KVLEVTEEFGV; listed as Homo sapiens) [compound 167],“+++” (≥50 = +++)
5,494 (ALQPEPIKV; listed as Homo sapiens) [compound 494],“++” (≥20% = ++)
6,312 (IISDLTIAL; listed as Homo sapiens) [compound 312],“+++” (≥50 = +++)
7,87 (ALPEAPAPLLPHIT; listed as Homo sapiens) [compound 87],“++” (≥20% = ++)
8,248 (FLFPNQYVDV; listed as Homo sapiens) [compound 248],“+++” (≥50 = +++)
9,386 (ILFRYPLTI; listed as Homo sapiens) [compound 386],“+++” (≥50 = +++)
10,242 (AIAYILQGV; listed as Homo sapiens) [compound 242],“++” (≥20% = ++)
11,555 (YVLEGLKSV; listed as Homo sapiens) [compound 555],“+++” (≥50 = +++)
